± gives the uncertainty stated by the source.
Assay: self-splicing fitness, log relative to wild type (ln ratio); higher = more splicing; Tetrahymena group I intron in knt gene, E. coli kanamycin selection, DiMSum; sequences stand for … in CUCUCU…GGAGGGAAAAGUUAUCAGGCAUGCACCUGGUAGCUAGUCUUUAAACCAAUAGAUUGCAUCGGUUUAAAAGGCAAGACCGUCAAAUUGCGGGAAAGGGGUCAACAGCCGUUCAGUACCAAGUCUCAGGGGAAACUUUGAGAUGGCCUUGCAAAGGGUAUGGUAAUAAGCUGACGGACAUGGUCCUAACCACGCAGCCAAGUCCUAAGUCAACAGAUCUUCUGUUGAUAUGGAUGCAGUUCACAGACUAAAUGUCGGUCGGGGAAGAUGUAUUCUUCUCAUAAGAUAUAGUCGGACCUCUCCUUAAUGGGAGCUAGCGGAUGAAGUGAUGCAACACUGGAGCCGCUGGGAACUAAUUUGUAUGCGAAAGUAUAUUGAUUAGUUUUGGAGUACUCGUGGUCG
In short: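 Library with all eight P1ex-region intron nucleotides randomised, intron inside the knt kanamycin-resistance gene on pET-22b(+), in E. coli BL21(DE3). Cells grew overnight at 37°C or 30°C on LB agar with or without 25 μg/mL kanamycin (plus 100 μg/mL carbenicillin, 50 μM IPTG, 0.2% rhamnose), in six replicate transformations. Pooled colonies were amplicon-sequenced on Illumina HiSeq 2500. DiMSum fitness is the error-weighted combination of wild-type-normalised replicate fold changes, kanamycin versus none.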

| Sequence | self-splicing fitness (ln) (37 °C) | self-splicing fitness (ln) (30 °C) |
| --- | --- | --- |
| AGCGAGCAAUAUUACGUUUA | -1.96 ± 0.26 | – |
| UCUAAGCAAUAUUACGUCAC | 0.446 ± 0.28 | -2.47 ± 0.24 |
| CCGCAGCAAUAUUACGCACU | -2.51 ± 0.24 | -2.9 ± 0.19 |
| CGAAAGCAAUAUUACGCUUC | -2.01 ± 0.39 | -2.95 ± 0.38 |
| UAGAAGCAAUAUUACGCUUA | -0.832 ± 0.14 | -1.9 ± 0.15 |
| AUUCAGCAAUAUUACGGUGU | -0.106 ± 0.055 | -0.571 ± 0.042 |
| GAAUAGCAAUAUUACGAAAU | -1.6 ± 0.13 | -1.3 ± 0.1 |
| UGACAGCAAUAUUACGUUUU | -1.43 ± 0.098 | -2.76 ± 0.11 |
| CUGCAGCAAUAUUACGUCUA | -0.709 ± 0.15 | -1.64 ± 0.12 |
| UCUUAGCAAUAUUACGAACA | -1.04 ± 0.14 | -0.762 ± 0.13 |
| GUGCAGCAAUAUUACGUGUC | -2.48 ± 0.25 | -2.72 ± 0.16 |
| CGGUAGCAAUAUUACGUUAG | 0.0358 ± 0.097 | 0.11 ± 0.074 |
| CCUAAGCAAUAUUACGCUCG | -2.15 ± 0.3 | – |
| UGCAAGCAAUAUUACGAUGU | -2.14 ± 0.19 | -2.73 ± 0.16 |
| AGUUAGCAAUAUUACGUGCG | -0.00484 ± 0.093 | -0.586 ± 0.082 |
| UCUCAGCAAUAUUACGUAGA | -0.77 ± 0.13 | -0.809 ± 0.091 |
| GAAUAGCAAUAUUACGUCCC | -0.165 ± 0.17 | -1.33 ± 0.12 |
| CAUUAGCAAUAUUACGCUAU | -2.99 ± 0.28 | -3.47 ± 0.3 |
| UAUAAGCAAUAUUACGUACA | -0.427 ± 0.14 | -0.793 ± 0.12 |
| CUGGAGCAAUAUUACGGCAA | -2.75 ± 0.3 | -2.52 ± 0.25 |
| AUCGAGCAAUAUUACGGCGC | -0.856 ± 0.13 | -1.38 ± 0.091 |
| CAUUAGCAAUAUUACGCUCA | -0.215 ± 0.073 | -1.21 ± 0.07 |
| ACUCAGCAAUAUUACGAUAU | -0.759 ± 0.11 | -1.1 ± 0.081 |
| UGAUAGCAAUAUUACGACUC | -1.46 ± 0.18 | -3.07 ± 0.21 |
| AGAGAGCAAUAUUACGGGGU | -2.65 ± 0.26 | – |
| GAUAAGCAAUAUUACGGCAG | -2.51 ± 0.33 | -3.5 ± 0.32 |

| Sequence | self-splicing fitness (ln) (37 °C) | self-splicing fitness (ln) (30 °C) |
| --- | --- | --- |
| AUAAAGCAAUAUUACGAAGA | -1.17 ± 0.18 | -2.47 ± 0.15 |
| UCAAAGCAAUAUUACGGAUU | -2.26 ± 0.21 | -3.73 ± 0.24 |
| CGAGAGCAAUAUUACGAAGA | – | -3.49 ± 0.36 |
| AUAUAGCAAUAUUACGCACG | -0.439 ± 0.21 | -1.54 ± 0.23 |
| GCCUAGCAAUAUUACGGAAA | -0.985 ± 0.26 | -0.507 ± 0.27 |
| GAGGAGCAAUAUUACGUACG | – | -2.21 ± 0.19 |
| CACGAGCAAUAUUACGCUAU | -2.56 ± 0.28 | -2.42 ± 0.21 |
| CGACAGCAAUAUUACGGGGC | -2.87 ± 0.29 | -3.72 ± 0.29 |
| AUUGAGCAAUAUUACGUCUC | -2.21 ± 0.42 | – |
| AUCGAGCAAUAUUACGUAAC | – | -3.15 ± 0.43 |
| GAAGAGCAAUAUUACGGGUA | -1.89 ± 0.15 | -2.6 ± 0.19 |
| CGCUAGCAAUAUUACGCAUC | -2.66 ± 0.29 | -3.88 ± 0.36 |
| CACCAGCAAUAUUACGUCUA | -1.79 ± 0.091 | -2.84 ± 0.091 |
| ACUCAGCAAUAUUACGGAGA | -0.997 ± 0.13 | -0.941 ± 0.12 |
| UCUUAGCAAUAUUACGAAAA | -0.128 ± 0.34 | – |
| GCGUAGCAAUAUUACGAUCU | -0.0119 ± 0.18 | -1.34 ± 0.17 |
| ACAAAGCAAUAUUACGAUAU | -1.15 ± 0.1 | -2.1 ± 0.088 |
| GUCUAGCAAUAUUACGCGUA | 0.391 ± 0.09 | -0.384 ± 0.081 |
| AAUGAGCAAUAUUACGCUGA | -2.12 ± 0.24 | -3.08 ± 0.38 |
| GGGGAGCAAUAUUACGGUGG | -2.67 ± 0.24 | -3.04 ± 0.25 |
| CGACAGCAAUAUUACGGUAU | -2.45 ± 0.23 | -3.62 ± 0.2 |
| GACUAGCAAUAUUACGUGUU | -2.07 ± 0.17 | -2.22 ± 0.11 |
| ACCCAGCAAUAUUACGCGCU | -1.36 ± 0.11 | -1.91 ± 0.097 |
| UUUCAGCAAUAUUACGAGUA | -0.691 ± 0.1 | -1.3 ± 0.11 |
| CGUCAGCAAUAUUACGGAAG | 0.304 ± 0.12 | -0.632 ± 0.088 |
| CUUGAGCAAUAUUACGACUU | -3.56 ± 0.43 | -2.53 ± 0.37 |

| Sequence | self-splicing fitness (ln) (37 °C) | self-splicing fitness (ln) (30 °C) |
| --- | --- | --- |
| CAGUAGCAAUAUUACGACUA | 0.675 ± 0.11 | 0.402 ± 0.089 |
| UUUCAGCAAUAUUACGGUGC | -3.4 ± 0.39 | -3.27 ± 0.21 |
| ACAGAGCAAUAUUACGUGGA | -2.88 ± 0.31 | -3.67 ± 0.31 |
| UGUUAGCAAUAUUACGUCGC | -2.23 ± 0.18 | -3.73 ± 0.18 |
| CUCAAGCAAUAUUACGCGAG | -3.14 ± 0.3 | -2.5 ± 0.2 |
| GAGGAGCAAUAUUACGUAUC | -2.74 ± 0.33 | -4.63 ± 0.42 |
| AACUAGCAAUAUUACGGAGG | -1.99 ± 0.22 | -3.08 ± 0.2 |
| GUGAAGCAAUAUUACGUGCC | -1.32 ± 0.36 | -1.92 ± 0.32 |
| CGCUAGCAAUAUUACGGCCA | -0.364 ± 0.2 | -0.309 ± 0.16 |
| GUGAAGCAAUAUUACGGCAC | -0.289 ± 0.33 | -0.747 ± 0.16 |
| UACAAGCAAUAUUACGUAGA | -1.46 ± 0.13 | -2.84 ± 0.14 |
| AAGAAGCAAUAUUACGUGGU | -2.23 ± 0.14 | -3.58 ± 0.14 |
| AAGCAGCAAUAUUACGUUUA | -0.691 ± 0.074 | -1.53 ± 0.084 |
| UACAAGCAAUAUUACGUUCU | -0.681 ± 0.12 | -1.28 ± 0.12 |
| CGCCAGCAAUAUUACGACCU | -2.15 ± 0.28 | -3.15 ± 0.36 |
| CGUCAGCAAUAUUACGCGGA | -3.17 ± 0.32 | – |
| UAAGAGCAAUAUUACGCAGA | -2.24 ± 0.23 | -2.62 ± 0.18 |
| UCUAAGCAAUAUUACGCCUC | -2.98 ± 0.47 | -3.67 ± 0.35 |
| GUCGAGCAAUAUUACGUCCA | -2.53 ± 0.26 | -2.21 ± 0.22 |
| GAAAAGCAAUAUUACGCGAC | 0.397 ± 0.26 | – |
| CGUUAGCAAUAUUACGUACA | -0.966 ± 0.12 | -0.358 ± 0.11 |
| CGUAAGCAAUAUUACGCCCG | -0.621 ± 0.23 | -1.93 ± 0.18 |
| GAUGAGCAAUAUUACGAACA | -1.54 ± 0.24 | -3.07 ± 0.47 |
| CGCUAGCAAUAUUACGCUAA | -1.53 ± 0.25 | -1.93 ± 0.22 |
| GCCGAGCAAUAUUACGCAUC | -1.48 ± 0.28 | -2.54 ± 0.24 |
| AAGUAGCAAUAUUACGGGUA | -1.09 ± 0.17 | -1.49 ± 0.16 |
